Measured values published in patent US20250177548A1, “FUSOGENIC PEPTIDE COMPOSITIONS AND METHODS OF CARGO DELIVERY” (CLEMSON UNIVERSITY, priority 2022, published 2025).
Entries after “also recorded” stand apart in the source; their conditions may differ. Non-standard residues stand in square brackets, D forms with d. No end group written: not given here. pG = not defined here

Tests used:
[1] = test system: OVCAR3 cells
Method: (§4) Cells were seeded at 10,000 cells per well with complete culture media in a 96-well plate and incubated overnight to allow the cells to attach. DIV3 (X) peptides were complexed with siNT at 40:1 to 80:1 N:P molar ratios. DIV3 (X)-siNT complexes were incubated with OVCAR3 or CAOV3 cells at a final concentration of 100 nM siRNA and 10% FBS for 24 hours. Media was then aspirated, cells were washed with 1× phosphate-buffered saline (PBS), and fresh media with 10% FBS was added to each well and incubated another 24 hours.
Viability was measured using an MTS Assay performed with CellTiter 96 AQueous One Solution Cell Proliferation Assay (Promega, Madison, WI). Assay reagent was added according to the manufacturer's protocol, and cells were incubated for 4 hours. Absorbance was read using a BioTek Synergy LX (BioTek, Winooksi, VT) plate reader at 490 nm. An MTS cell viability assay was also conducted as described for OVCAR3 and CAOV3 cells treated with DIV3W-siRNA complexes.
OVCAR3 or CAOV3 cells were seeded at 10,000 cells per well with complete culture media in a transparent 96-well plate and incubated overnight to allow the cells to attach. LHRH and LHRH-DIV3W peptides were delivered to cells without siRNA cargo. After 24 hours of incubation the media was exchanged and after another 24-hour incubation at 37° C. in 5% CO2, viability was measured using an MTS Assay performed with the CellTiter 96 AQueous One Solution Assay (Promega, Madison, WI). Assay reagent was added according to the manufacturer's protocol and cells were incubated for 4 hours. Absorbance was read using a BioTek Synergy LX (BioTek, Winooksi, VT) plate reader at 490 nm.

[2] = test system: CAOV3 cells
Method: as §4
Viability was measured using an MTS Assay performed with CellTiter 96 AQueous One Solution Cell Proliferation Assay (Promega, Madison, WI). Assay reagent was added according to the manufacturer's protocol, and cells were incubated for 4 hours. Absorbance was read using a BioTek Synergy LX (BioTek, Winooksi, VT) plate reader at 490 nm. […]
OVCAR3 or CAOV3 cells were seeded at 10,000 cells per well with complete culture media in a transparent 96-well plate and incubated overnight to allow the cells to attach. […] After 24 hours of incubation the media was exchanged and after another 24-hour incubation at 37° C. in 5% CO2, viability was measured using an MTS Assay performed with the CellTiter 96 AQueous One Solution Assay (Promega, Madison, WI). […] Absorbance was read using a BioTek Synergy LX (BioTek, Winooksi, VT) plate reader at 490 nm.

[3] = test system: RNase A; experiment: gel assay of siRNA protection from RNase A degradation; format: in vitro ADME; settings: 1 hour, several N:P ratios
Method: (§1) Gel Shift Assays. DIVA3, DIV3H, and DIV3W (all three denoted as DIV3 (X)) peptides suspended in RNase-free water (10 μM), were thawed, and kept on ice prior to complexation with 10 μM of negative control siGENOME non-targeting siRNA #5 (siNT, GE Healthcare Dharmacon, Lafayette, CO) in RNase-free water and incubated for 20 minutes at room temperature to allow the formation of DIV3 (X)-siNT complexes. Various molar ratios of peptides were complexed with siNT at increasing N:P molar ratios to determine the minimum molar ratio necessary to completely complex free siRNAs using an electrophoretic mobility shift assay. To determine the ability of each peptide variant to protect siRNAs from degradation, DIV3 (X)-siNT complexes or siNT alone was left untreated or incubated with either 50% v/v FBS or 5 μg/mL RNase A at 37° C. for one hour. Next, complexes were dissociated using 6% sodium dodecyl sulfate (SDS). Samples were added to a 2% agarose gel and run at 100 V. Gels were stained with ethidium bromide, destained with Milli-Q water, and imaged using a ChemiDoc XRS imager (Bio-Rad, Hercules, CA).
(§2) Characterization of Nanoparticle Size and Stability. To determine the minimum molar ratio necessary to completely complex free siRNAs, increasing N:P molar ratios of LHRH, DIV3W, and LHRH-DIV3W peptide were complexed with siRNAs and electrophoresed using a electrophoretic mobility shift assay. Molar ratios, shown as N:P, are representations of the molar amine peptide content in relation to 1 mole of phosphate group siRNA content. To determine the ability of the peptides to protect siRNAs from serum- or RNase-mediated degradation, LHRH and LHRH-DIV3W complexes were formed in RNase-free water with siNT at increasing N:P molar ratios and incubated at 37° C., 5% CO2, 50% v/v FBS, 5 μg/mL RNase A, or 50% v/v RNase free water for 1 hour. Peptide/siRNA complexes were dissociated using 6% sodium dodecyl sulfate (SDS) prior to electrophoresis in a 2% agarose gel run at 100 V. Gels were stained with ethidium bromide, washed with Milli-Q water, and imaged with a BioRad ChemiDoc XRS imager (BioRad, Hercules, CA).
(§3) Peptides VA-LD and GF-LD, comprising the cleavable linker VA or GLFG, respectively, between the LHRH target sequence and the DIV3W peptide, and non targeting siRNA were electrostatically complexed at increasing N:P ratios then subjected to agarose gel electrophoresis to determine optimal siRNA binding for each peptide. […] Peptide-siRNA nanocomplexes at increasing N:P ratios for peptides for VA-LD (FIG. 30A) and GF-LD (FIG. 30C) were incubated in either Rnase A enzyme or in 50% fetal bovine serum (FBS) for 1 h, dissociated using SDS then subjected to gel electrophoresis to visualize siRNA bands. Gels showing increasing N:P ratios of peptide:siRNA for VA-LD (FIG. 30B) and GF-LD (FIG. 30D) from 20:1 to 80:1 N:P; white bands are indicative of intact siRNA

[4] = target: T1, LHRH receptor (Homo sapiens, UniProt P30968); experiment: competitive binding assay with LHRH receptor antibody; format: cell-based; settings: OVCAR3 and CAOV3 cells, siNT-Cy5.5 complexes, 4 hours
T1 construct: endogenous in cells; host or cells: OVCAR3, CAOV3
T1 sequence (P30968 1-328): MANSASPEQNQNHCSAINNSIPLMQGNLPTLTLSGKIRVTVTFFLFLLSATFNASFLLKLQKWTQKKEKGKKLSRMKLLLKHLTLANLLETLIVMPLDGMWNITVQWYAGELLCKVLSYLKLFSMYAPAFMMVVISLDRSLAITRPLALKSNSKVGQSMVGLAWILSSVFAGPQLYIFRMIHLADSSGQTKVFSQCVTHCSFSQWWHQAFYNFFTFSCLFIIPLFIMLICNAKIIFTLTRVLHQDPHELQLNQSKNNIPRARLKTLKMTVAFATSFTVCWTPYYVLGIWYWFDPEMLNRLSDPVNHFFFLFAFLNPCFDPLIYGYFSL
Method: To analyze the specificity of the LHRH-DIV3W tandem peptide targeting LHRH receptor, a competitive binding assay was performed by incubating OVCAR3 and CAOV3 cells with GnRHR primary antibody (1:100) in 1× PBS overnight at 4° C. after being blocked with a 1% bovine serum albumin solution for 30 minutes at room temperature. LHRH-DIV3W-siNT-Cy5.5 complexes were delivered after the overnight primary antibody incubation and incubated again for 4 hours. Secondary SuperSignal Alexa Fluor 488 antibodies were delivered dropwise to cells following Invitrogen SuperSignal protocols and left to incubate at room temperature for 30 minutes and subsequently stained with SuperSignal NucBlue Hoescht 33342 for an additional 30 minutes at room temperature. Cells were imaged at 20× and 40× using an Evos FL microscope (Thermo Fisher).

[5] = gel assay of siRNA protection from degradation in 50% serum; format: in vitro ADME; settings: 50% FBS, 1 hour, several N:P ratios
Method: as §1, §2, §3

With “pGHWSY-(d) LLRPGGGGGWEADIVADIVWDIVADIVAGGG-(d) RRRRRRRRR ([pG]HWSY[dL]LRPGGGGGWEADIVADIVWDIVADIVAGGG[dR][dR][dR][dR][dR][dR][dR][dR][dR]; reading uncertain) [LHRH-DIV3W]” the “cytotoxicity of peptide alone” value [1] was “did not cause cytotoxic effects”, the viability [1] was 109.66%+0.8% and the “cytotoxicity of peptide alone” value [2] was “did not cause cytotoxic effects”. The “intact siRNA after incubation with RNase A” value [3] was “Higher N:P ratios were required for full protection”, the “siRNA internalization after preincubation with LHRH receptor antibody” value [4] was “siRNA internalization was drastically decreased; also recorded: minimal siRNA internalization” and the “intact siRNA after incubation in 50% serum” value [5] was “fully protect siRNA cargo from degradation”.
